Assay [1] has as its target T1, HLA-A*03:01 recombinant MHC class I molecule (human).
T1 construct: Recombinant MHC molecule incubated with synthetic peptide
Put plainly: REVEAL MHC-peptide complex stabilisation assay, recombinant HLA-A*03:01. How it is done:
(§1) Specifically, assessment was of a series of overlapping 9-mer peptides derived from the sequence […] (set forth in SEQ ID NO: 7), which contains a portion of the CD28 transmembrane domain and 4-1BB costimulatory domain spanning the junction between the domains (bond joining the two amino acids noted in underline). In addition, a series of overlapping 9-mer peptides of each of a number of different variants of this portion also were assessed, each variant containing a mutation or mutations in this region as described in Example 2.
(§2) The various 9-mer overlapping peptides were synthesized and their purity tested by MALDI-TOF Mass Spectrometry.

Assay [2] has as its target T2, HLA-A*11:01 recombinant MHC class I molecule (human).
T2 construct: Recombinant MHC molecule of a bought assay service
The assay can be described thus: REVEAL MHC-peptide binding assay, stabilisation of ternary MHC-peptide complex, recombinant HLA. The procedure: as §1, §2

For assay [3], the target named is T3, HLA-B*08:01 recombinant MHC class I molecule (human).
T3 construct: Recombinant MHC molecule of a bought assay service
The description is as above. The procedure:
as §1, §2

For assay [4], the target named is T4, HLA-B*08:01 (recombinant MHC class I molecule) (human).
T4 construct: Recombinant MHC molecule of the ProImmune REVEAL assay; the test peptide is the third part of the ternary complex
The assay can be described thus: REVEAL MHC-peptide complex stabilisation assay, recombinant HLA-B*08:01. How it is done:
as §1, §2

The target in assay [5] is T5, recombinant HLA-A*02:01 MHC class I molecule (human).
T5 construct: Recombinant MHC molecule incubated with each synthetic peptide; the assay measures how far the peptide stabilises the ternary MHC-peptide complex; also called HLA-A2:01
Put plainly: REVEAL MHC-peptide binding assay, stabilisation of ternary complex with recombinant MHC. How it is done:
as §1, §2

Assay [6] deals with T6, recombinant HLA-A*03:01 MHC class I molecule (human).
T6 construct: Recombinant MHC molecule incubated with each synthetic peptide; the assay measures how far the peptide stabilises the ternary MHC-peptide complex
Described as above. How it is done: as §1, §2

Ends that are not written are not given here.

For IFWVQRGSK, the “In Vitro Score” value in assay [1] was 0.3 % of positive control peptide.
With WVQRGNKKS (not fully specified, Synthetic 9-mer; also called K29Q/L35S), the figures for the “In Vitro Score” value in assay [2] and in assay [3] were 5 % of positive control peptide (set at 100%) and 0 % of positive control peptide (set at 100%), respectively.
With WVQRGNKKA (not fully specified, Synthetic 9-mer; also called K29Q/L35A), the figures for the “In Vitro Score” value in assay [2] and in assay [3] were 0.8 % of positive control peptide (set at 100%) and 0.7 % of positive control peptide (set at 100%), respectively.
As to AFIIFWVRR (Synthetic 9-mer), the “In Vitro Score” value in assay [2] was 1.5 % of positive control peptide (set at 100%); in assay [3], 0.3 % of positive control peptide (set at 100%).

B1: FWVKRGLKK (SEQ ID NO: 63) (peptide)
peptide: FWVKRGLKK
notes: synthetic 9-mer; the entry already carries the change; also called R32L
Turning to B1, in assay [4], the “In Vitro Score” value is 6.3 % of positive control peptide.
For WVKRGRKKA (Synthetic 9-mer), the “In Vitro Score” value in assay [2] and in assay [3] was 3.1 % of positive control peptide (set at 100%) in each case.

B2: AFIIFWVRR synthetic 9-mer peptide (overlapping reference peptide 2, K29R) (peptide)
peptide: AFIIFWVRR
notes: Variant 9-mer of the CD28-4-1BB junction region
For B2, the “In Vitro Score” value in assay [5] is 1.4 score, % of positive control peptide (=100).

B3: WVQRGNKKS synthetic 9-mer peptide (overlapping reference peptide 7, K29Q/L35S) (peptide)
peptide: WVQRGNKKS
modifications: not fully specified
notes: as for B2
As to B3, the “In Vitro Score” value in assay [5] was 1.2 score, % of positive control peptide (=100); in assay [6], 0.7 score, % of positive control peptide (=100).

B4: WVQRGNKKA synthetic 9-mer peptide (overlapping reference peptide 7, K29Q/L35A) (peptide)
peptide: WVQRGNKKA
modifications: not fully specified
notes: as for B2
Turning to B4, the “In Vitro Score” value was 1.9 score, % of positive control peptide (=100) in assay [5] and 1.2 score, % of positive control peptide (=100) in assay [6].

B5: WVKRGRKKA synthetic 9-mer peptide (overlapping reference peptide 7, L35A) (peptide)
peptide: WVKRGRKKA
notes: Variant 9-mer of the CD28 transmembrane / 4-1BB costimulatory junction region of a CAR
For B5, the “In Vitro Score” value is 4.5 score, % of positive control peptide (=100) in assay [5] and 0.9 score, % of positive control peptide (=100) in assay [6].

The record behind these values is US20160158359A1 (JUNO THERAPEUTICS, published 2016).
